For assay [1], the target named is T1, Rhesus D antigen (human, UniProt Q02161 2-417).
T1 construct: whole, on cells; Presented on RhD-positive erythrocytes in all assays; also called RhD; RhD antigen
T1 sequence (looked up): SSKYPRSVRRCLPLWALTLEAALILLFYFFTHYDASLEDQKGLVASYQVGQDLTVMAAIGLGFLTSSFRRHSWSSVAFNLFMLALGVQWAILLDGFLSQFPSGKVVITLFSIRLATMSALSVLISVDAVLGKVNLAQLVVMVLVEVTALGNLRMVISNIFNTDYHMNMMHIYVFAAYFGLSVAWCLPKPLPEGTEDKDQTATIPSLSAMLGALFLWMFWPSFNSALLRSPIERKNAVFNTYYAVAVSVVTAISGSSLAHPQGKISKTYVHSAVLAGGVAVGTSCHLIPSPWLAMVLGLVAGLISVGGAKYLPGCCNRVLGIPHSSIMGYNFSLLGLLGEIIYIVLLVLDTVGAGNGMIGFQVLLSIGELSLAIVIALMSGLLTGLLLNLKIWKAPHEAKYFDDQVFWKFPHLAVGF
The assay can be described thus: agglutination assay, Fab on RhD(+)/RhD(-) RBC mix. As for the experimental part: After each round of panning single colonies were picked for analysis of their binding properties to red blood cells in agglutination assays. Briefly, single colonies were inoculated into 2×YT/100 μg/mL carbenicillin/1% glucose and shaken overnight at 37° C. The next day, DeepWell plates were inoculated using 900 μl 2×YT/100 μg/mL carbenicillin/0.1% glucose and 10 μl overnight culture. The plates were shaken for two hours at 37° C., before Fab induction was performed with addition of 300 μl 2×YT/100 μg/mL carbenicillin/0.25 mM IPTG per well. The plate was shaken overnight at 30° C. The following day, the bacteria were pelleted by centrifugation (3200×g, 4° C., 10 minutes), and re-suspended in 100 μl of 0.8 M NaCl, 0.2×PBS, 8 mM EDTA, and incubated for 15 minutes on ice in order to perform a periplasmic extraction of the Fab fragments. The plate was transferred to −20° C. and finally the suspension was thawed and centrifugation was performed for 10 minutes at 4° C. and 3200×g. The periplasmic extract was used in ELISA assays for analysis of Fab content and in agglutination assays to evaluate the binding potential of the individual Fab fragments. The agglutination assay was performed as follows: RhD(−) and RhD(+) RBC were mixed in a 1:1 ratio, and washed 3 times in PBS. After the final wash, the cell mix was re-suspended in 1% BSA in PBS at a density of 1% cells, 50 μl was added to each well of a 96-plate. Periplasmic extracts were added to the wells. As a positive control Rhesogamma P immunoglobulin (Aventis) was used according to the manufacturer's instructions. The plates were incubated for one hour at room temperature with gentle shaking. The cells were washed three times with PBS, before the secondary antibody was added (goat anti-human Fab/FITC conjugate, Sigma F5512) in a 1:100 dilution. The plates were left for agglutination for one hour at room temperature without shaking. Fab fragments positive in the agglutination assay was determined by visual inspection, and recorded by taking a picture. Quantization of the binding activity of the Fab fragments was performed by FACS analysis of the agglutination samples.

Assay [2] has as its target T1, Rhesus D antigen. Kind of assay: Fab screening on red blood cells (agglutination/FACS).

B1: RhD161.119E09 (Fab, V domains shown)
VH: EVQLVESGGGVVQSGRSLRLSCAASGFTFSNNGMHWVRQAPGKGLEWVAFIWYDGSNKYYADSVKGRFTISRDNSKNTLYLQMDGLRAEDSAVYYCAREEIAARLYSRYHYAMDVWGQGTMVTVSS
VL: DIQMTQSPSFLSASVGDRVTITCRASQGIRRYLAWFQQKPGKAPKLLIFSASTLQSGVPSRFSGSGSGTEFTLTISSLQPEDFATYYCQQLSSYPPYTFGQGTKLEIKR
notes: Tested as Fab (periplasmic extract)
With B1, the binding result in assay [1] was “binds”.

B2: RhD159.119B09 (Fab, V domains shown)
VH: EVQLVETGGGLVQPGGSLRLSCAASGFSFRSYDMNWVRQAPGKGLEWVSYISGRGSTTYYADSVKGRFTISRDNAKNSLYLQMNSLRAEDTAVYYCARDLYGDYDPKSYYYYAMDVWGHGTTVTVSS
VL: EIVMTQSPGTLSLSPGERATLSCRASHTVSSGYLAWYQQKPGQAPRLLIYGASNRATGVPDRFGGSGSGTDFTLTISRLEPEDSAVYFCQQYGTSPGVTFGQGTRLEIER
notes: as for B1
Consider B2, for which the binding result in assay [1] is listed as “binds”.

B3: RhD295.119B11 (Fab, V domains shown)
VH: QVQLVESGGGLVQPGGSLRLSCVGSGFTFRSFDMNWVRQAPGKGLEWISYINSRGNTRYYVDSVKGRFTISRDNAKNSLYLQMNSLRAEDTAVYYCARDLYGDYDPKSYYYYGMDVWGQGTMVTVSS
VL: EIVLTQSPGTLSLSPGERATLSCRASQSFSSGYLAWYQQKPGQAPRLLIYGASNRATGIPDRFSGSGSGTDFTLTISRLEPEDFAVYYCQHYGSSPPITFGQGTRLEIKR
notes: as for B1
Take B3: the binding result in assay [1] is “binds”.

B4: RhD160.119C07 (Fab, V domains shown)
VH: EVQLVESGGGVVQPGRSLRLSCAASGFTFSNYGMHWVRQAPGKGLEWVAVIWYDGSNRFYADSVKGRFTISRDNSKNTLYLQMNNLRAEDTALYSCAREITTTVVVRRHYLMDIWGQGTTVTVSS
VL: DIQLTQSPSSLSASVGDRVSITCRASQGISNSLAWYQQKPGKVPKLLIYAASTLQSGVPSRFSGGGSGTDFTLTISSLQPEDVATYYCQKYNSAPFAFGPGTKVDIKR
notes: as for B1
As to B4, in assay [1], the binding result is on record as “binds”.

B5: RhD299.127A12 (Fab, V domains shown)
VH: QVQLVESGGGVVQPGRSLRLSCAASGFTFSNFGMHWVRQAPGKGLEWVAVIWYDGSNKDYADSVKGRFTISRDNSKRTLYLQMNSLRAEDTAVYYCARELARGRLRDLDYWGQGTLVTVSS
VL: QAVVTQEPSLTVSPGGTVTLTCASSTGAVTTGYYPNWFQQKPGQAPRALIYSTSKKHSWTPARFSGSLLGGKAALTLSGVQPEDEAEYYCLLFYGGAQLGVFGGGTKLTVLG
notes: as for B1
B5: the binding result in assay [2] is “binds”.

B6: RhD296.126A03 (Fab, V domains shown)
VH: EVQLVESGGGVVQPGRSLRLSCEASGFTFSNYGMHWFRQAPGKGLEWVAIIWYDGSNKHYADSVKGRFTISRDNSKNTLYLQMNSLRAEDTAVYFCAREIASRGYSRYLYYFDSWGQGTLVTVSS
VL: DIQMTQSPSSLSASVGDRVTITCRASQSISSYLNWYQQKPGKAPKLLIFAASSLQSGVPSRFSGSGSGTDFSLTISSLQPEDFATYYCQQSYSSLALTFGGGTKVEIKR
notes: as for B1
Consider B6, for which the binding result in assay [1] is listed as “binds”.

B7: RhD300.134H09 (Fab, V domains shown)
VH: QVQLVESGGGVVQPGRSLRLSCAASGFTFSSYGMHWVRQAPGKGLEWVAVIWYDGSNKYYADSVKGRFTISRDNSKNTLYLQMNSLRAEDTAVYYCAREFYTRSGLWSQGYSYYMDVWGKGTTVTVSS
VL: QTVVTQEPSFSVSPGGTVTLTCGLSSGSVSARYYPSWYQQTPGQPPRTLIHSTNTRSSGVPDRFSGSILGNKAALTITGAQADDESDYYCVLYMGSGPWVFGGGTKLTVLG
notes: as for B1
In the case of B7, in assay [2], the binding result is reported as “binds”.

B8: RhD301.160A04 (Fab, V domains shown)
VH: QVQLVESGGGVVQPGRSLRLSCAASGFTFSSYGMHWVRQAPGKGLEWVAVIWFDGGNKYYADSAKGRFTISRDNSKNTLYLQMNSLRAEDTAVYYCARDASVLSGLVTRRLVYYGMDVWGQGTTVTVSS
VL: DVVMTQSPLSLPVTPGEPASISCRSSQSLLHRNGYNYLNWYLQKPGQSPQLLIYLGSNRASGVPDRFSGSGSGTDFTLKISGVEAEDVAFYYCMQGLRTPYTFGQGTKLEIKR
notes: as for B1
With B8, the binding result in assay [2] is “binds”.

Source of the values: US20110217317A1 (published 2011).
